In IntAct's records for PubMed 31147388:

B1: Protein pid-1 (Caenorhabditis elegans), Q19541 (parent)
chain: MSAKREFSHITLASTPFKKRIDQNSLKTDSDIEKDTNIAHKCAERFNYNTNLHRKVTLSDRFELAALGYEMKAKPRTIIEKHNDCDEFHFIYRKEKKNDYGTGSPLSAGLSLSNPLPAGRGFLSPAIQNTSNQFTFSGSPRITPQKHTPVSANHKPARSIFDDIPSNIA
partner: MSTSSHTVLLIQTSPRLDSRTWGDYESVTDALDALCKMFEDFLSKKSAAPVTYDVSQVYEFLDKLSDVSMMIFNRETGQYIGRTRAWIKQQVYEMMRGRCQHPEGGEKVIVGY
B2: Protein tost-1 (Caenorhabditis elegans), Q18490 (parent)
chain: MTTAIQYQVIPLADREHSNKVASILENKYKTATNKRITLNERFGVLEKGYTIQATEPETVKNDSDVFFVVHDRNLNSKKEFVENYLAKNPIVNSPEKVFEEEDKENAPTKKAVLKPSSTDEKKLTSSDIYIQEITRSILQSV
partner: B1 partner

Variants of: B1
Settings: with erh2_caeel erh-2, Q20057

Variant	effect of a mutation on the interaction
MSAKREFSHITLASTPFKKRIDQNSLKTDSDIEKDTNIAHKCAERFNYNTNLHRKVTLSDCFELAALGYEMKAKPRTIIEKHNDCDEFHFIYRKEKKNDYGTGSPLSAGLSLSNPLPAGRGFLSPAIQNTSNQFTFSGSPRITPQKHTPVSANHKPARSIFDDIPSNIA [R61C]	decreasing interaction strength

Variants of: B1
Settings: with erh2_caeel erh-2, Q20057
Remark: another data set of the same source

Variant	effect of a mutation on the interaction
MSAKREFSHITLASTPFKKRIDQNSLKTDSDIEKDTNIAHKCAERFNYNTNLHRKVTLSDCFELAALGYEMKAKPRTIIEKHNDCDEFHFIYRKEKKNDYGTGSPLSAGLSLSNPLPAGRGFLSPAIQNTSNQFTFSGSPRITPQKHTPVSANHKPARSIFDDIPSNIA [R61C]	disrupting interaction strength

Variants of: B2
Settings: with erh2_caeel erh-2, Q20057

Variant	effect of a mutation on the interaction
MTTAIQYQVIPLADREHSNKVASILENKYKTATNKRITLNECFGVLEKGYTIQATEPETVKNDSDVFFVVHDRNLNSKKEFVENYLAKNPIVNSPEKVFEEEDKENAPTKKAVLKPSSTDEKKLTSSDIYIQEITRSILQSV [R42C]	disrupting interaction strength
